Columns and labels:
[1] = biological target: T1, RF2b (expressed in BY-2 protoplasts) (UniProt Q6S4P4); assay: cell_activity; conditions: GUS reporter in BY-2 protoplasts
T1 sequence: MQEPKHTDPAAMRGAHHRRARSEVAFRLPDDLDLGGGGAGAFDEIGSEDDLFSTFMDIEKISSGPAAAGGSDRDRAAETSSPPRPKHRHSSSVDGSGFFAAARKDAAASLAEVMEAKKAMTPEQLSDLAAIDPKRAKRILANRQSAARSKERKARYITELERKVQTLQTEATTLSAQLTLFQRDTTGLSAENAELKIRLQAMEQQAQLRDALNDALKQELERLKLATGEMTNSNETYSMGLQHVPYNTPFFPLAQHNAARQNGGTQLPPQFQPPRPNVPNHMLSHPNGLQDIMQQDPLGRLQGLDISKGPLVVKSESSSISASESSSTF

RF2b [2] = biological target: T2, RF2b (UniProt Q6S4P4 SEQ:1-329); assay: SPR; value only in figure; lower affinity than RF2a; slow on, relatively fast off; conditions: chain copies: 2 (inferred, bZIP dimer); label: biotin (SPR)
T2 chain: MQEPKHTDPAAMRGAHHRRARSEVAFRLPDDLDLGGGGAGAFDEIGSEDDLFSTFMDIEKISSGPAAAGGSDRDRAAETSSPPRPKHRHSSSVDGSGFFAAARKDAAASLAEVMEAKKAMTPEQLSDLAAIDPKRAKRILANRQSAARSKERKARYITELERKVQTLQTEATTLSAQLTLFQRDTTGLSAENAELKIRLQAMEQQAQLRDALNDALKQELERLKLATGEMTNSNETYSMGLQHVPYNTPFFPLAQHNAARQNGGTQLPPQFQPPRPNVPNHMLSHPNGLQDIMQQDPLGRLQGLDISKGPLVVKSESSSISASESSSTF
Experimental: (§1) To compare the binding affinities of RF2a and RF2b with the Box II element and its mutants, real time Surface Plasmon Resonance (“SPR”) measurements were conducted using a BIAcore 2000 instrument. The binding affinities of RF2a and RF2b to these DNA targets were measured on chips on which biotin labeled-Box II, -Box IIm1 and -Box IIm2 elements were immobilized.
(§2) The association and de-association constants were determined using BIAevaluation 3.1 software—using 1:1 binding with a mass transfer model. In general, RF2a has relatively higher binding affinities to the Box II, Box IIm1 and Box IIm2 elements when compared to RF2b. Furthermore, the DNA binding behavior of RF2a and RF2b are quite different from each other. RF2a appears to bind rapidly to the DNA target and slowly dissociates from the target, while RF2b binds slowly to the DNA target and releases from the target relatively quickly. The differences in the affinity of RF2a to the Box II element and its mutants, however, are not as dramatic as the differences of RF2b, while the relative order of affinities to the different target elements is the same for both proteins (FIG. 8).

RF2b [3] = biological target: T2, RF2b; assay: SPR; value only in figure; lower affinity than RF2a; conditions: chain copies: 2 (inferred, bZIP dimer), label: biotin (SPR)
Experimental: as §1, §2

[4] = biological target: T3, RF2a-ΔP (proline-rich domain deleted) (UniProt Q69IL4 SEQ:1-320); assay: EMSA; 100 ng protein, 5% acrylamide gel; conditions: tags: N-terminal His6 (pET28a); chain copies: 2 (inferred, bZIP dimer); label: biotin (SPR); 32P (EMSA)
T3 chain: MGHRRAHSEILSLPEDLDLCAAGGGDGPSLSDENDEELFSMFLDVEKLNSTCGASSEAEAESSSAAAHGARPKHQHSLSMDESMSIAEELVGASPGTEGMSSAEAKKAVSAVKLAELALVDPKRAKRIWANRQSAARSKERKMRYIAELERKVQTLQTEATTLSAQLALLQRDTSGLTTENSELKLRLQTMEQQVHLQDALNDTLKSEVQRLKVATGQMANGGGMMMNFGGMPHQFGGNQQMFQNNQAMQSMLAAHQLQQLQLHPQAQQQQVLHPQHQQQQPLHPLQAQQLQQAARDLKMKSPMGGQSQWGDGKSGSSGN
Experimental: (§3) The purified mutant proteins were then analyzed by SDS-PAGE to confirm that each protein was its expected size (FIG. 16(B)). To confirm that each of the mutant proteins bind to the DNA target, i.e., the Box II element and/or its operational derivatives, gel mobility shift assays were carried out with the purified recombinant proteins (FIG. 16(C)). The electrophoretic mobility shift assays were carried out essentially as described in Yin and Beachy (1995). 100 ng of proteins purified from the transformed E. coli were incubated with ³²P-labeled Box IIm1 DNA probe followed by electrophoresis in a 5% acrylamide gel (Yin et al., 1997) (FIG. 16(C)).

[5] = biological target: T4, RF2a-ΔPΔA (proline-rich and acidic domains deleted) (UniProt Q69IL4 SEQ:1-261); assay: EMSA; 100 ng protein, 5% acrylamide gel; conditions: tags: N-terminal His6 (pET28a); chain copies: 2 (inferred, bZIP dimer); label: biotin (SPR); 32P (EMSA)
T4 chain: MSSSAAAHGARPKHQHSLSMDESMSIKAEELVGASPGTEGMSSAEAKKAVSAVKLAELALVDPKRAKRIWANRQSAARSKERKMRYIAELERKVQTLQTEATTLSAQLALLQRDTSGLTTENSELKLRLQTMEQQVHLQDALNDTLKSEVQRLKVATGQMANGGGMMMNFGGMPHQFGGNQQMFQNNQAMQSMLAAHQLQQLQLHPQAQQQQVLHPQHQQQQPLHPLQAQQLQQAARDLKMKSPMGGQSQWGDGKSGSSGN
Experimental: as §3

[6] = biological target: T5, RF2a-ΔQ (glutamine-rich domain deleted) (UniProt Q69IL4 SEQ:1-283); assay: EMSA; 100 ng protein, 5% acrylamide gel; conditions: tags: N-terminal His6 (pET28a); chain copies: 2 (inferred, bZIP dimer); label: biotin (SPR); 32P (EMSA)
T5 chain: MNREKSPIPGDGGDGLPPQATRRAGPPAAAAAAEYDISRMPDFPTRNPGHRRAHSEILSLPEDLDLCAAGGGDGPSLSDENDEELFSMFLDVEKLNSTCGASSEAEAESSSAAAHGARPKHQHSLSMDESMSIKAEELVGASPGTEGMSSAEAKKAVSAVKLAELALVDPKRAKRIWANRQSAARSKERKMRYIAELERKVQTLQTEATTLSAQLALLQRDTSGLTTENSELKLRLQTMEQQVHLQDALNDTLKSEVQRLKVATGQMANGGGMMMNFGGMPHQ
Experimental: as §3

[7] = biological target: T6, RF2a-ΔPΔQ (proline- and glutamine-rich domains deleted) (UniProt Q69IL4 SEQ:1-236); assay: EMSA; 100 ng protein, 5% acrylamide gel; conditions: tags: N-terminal His6 (pET28a); chain copies: 2 (inferred, bZIP dimer); label: biotin (SPR); 32P (EMSA)
T6 chain: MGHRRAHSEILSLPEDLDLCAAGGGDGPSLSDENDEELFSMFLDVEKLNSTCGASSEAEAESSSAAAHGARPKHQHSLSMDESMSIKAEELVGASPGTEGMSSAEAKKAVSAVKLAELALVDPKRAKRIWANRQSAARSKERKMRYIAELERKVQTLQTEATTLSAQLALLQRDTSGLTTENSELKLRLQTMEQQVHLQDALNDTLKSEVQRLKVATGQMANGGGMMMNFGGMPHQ
Experimental: as §3

For “ACGAATCAATAAAGAAGGACCAGAAGATATAAAGCTGGAACATCTTCACATGCTACCACATGGCTAGCATCTTTACTTTAGCATCTCTATTATTGTAAGAGTGTATAATGACCAGTGTGGCGCTGGACTCCAGTATATAAGGAGCACCAGAGTAGTGTAATAGATCATCGATCAAGCAAGCGAGAGCTCAAACTTCTAAGAGAGCAAGA (double strand) [E fragment with Box IIm1]”, the activity (fold activation) [1] was 7.

In the case of “ACGAATCAATAAAGAAGGACCAGAAGATATAAAGCTGGAACATCTTCACATGCTACCACATGGCTAGCATCTTTACTTTAGCATCTCTATTATTGTAAGAGTGTATAATGAGGAGTGTGCCCCTTCACTCCAGTATATAAGGAGCACCAGAGTAGTGTAATAGATCATCGATCAAGCAAGCGAGAGCTCAAACTTCTAAGAGAGCAAGA (double strand) [E fragment with Box IIm2]”, the activity (fold activation) [1] is reported as 5.8.

B1: Box II (dsDNA)
DNA 1: CCAGTGTGCCCCTGG
DNA 2: CCAGGGGCACACTGG
B1: binds (RF2b [2]).

B2: Box IIm2 (dsDNA)
DNA 1: GGAGTGTGCCCCTTC
DNA 2: GAAGGGGCACACTCC
B2: binds (RF2b [3]).

B3: Box IIm1 (dsDNA)
DNA 1: CCAGTGTGGCGCTGG
DNA 2: CCAGCGCCACACTGG
B3: binds [4]; binds [5]; binds [6]. B3: binds [7]; binds (RF2b [3]; 32P (EMSA)).

From patent US20070298499, “Methods and compositions for regulating gene expression in plant cells” (published 2007)
